From the Human Domainome abundance scans (Beltran et al. 2025)
± gives the uncertainty stated by the source.

B1: Tesmin, residues 368 to 403; numbered along this chain, Q9Y4I5 (parent)
chain: KGCNCRRSGCLKNYCECYEAQIMCSSICKCIGCKNY

Variants of: B1
Experiment: abundance fitness (aPCA) (normalised: wild type 0, dead -1); higher = more abundant; growth selection in yeast, the domain comes from the species named
Conditions: Homo sapiens

Abundance fitness of substitutions, site by site:
E16: A -0.256 ± 0.078 | L -0.441 ± 0.11 | Q -0.034 ± 0.082 | P -0.327 ± 0.089 | H -0.418 ± 0.43 | K -0.502 ± 0.13 | S -0.57 ± 0.1 | F -0.453 ± 0.38 | V -0.329 ± 0.075 | N -0.763 ± 0.1 | W -0.466 ± 0.11 | T -0.39 ± 0.15 | M -0.218 ± 0.1 | Y -0.577 ± 0.14 | R -0.341 ± 0.074 | D -0.522 ± 0.28 | C -0.677 ± 0.12 | G -0.086 ± 0.075
R7: E 0.398 ± 0.096 | I -0.336 ± 0.14 | G 0.268 ± 0.073 | Q 0.282 ± 0.12 | Y 0.035 ± 0.19 | T 0.047 ± 0.14 | W -0.255 ± 0.073 | K 0.039 ± 0.17 | P -0.103 ± 0.085 | C -0.401 ± 0.14 | A 0.248 ± 0.075 | L -0.021 ± 0.077 | M 0.214 ± 0.18
C17: E -0.465 ± 0.12 | A -0.36 ± 0.079 | Y -0.72 ± 0.17 | M -0.575 ± 0.12 | R -0.444 ± 0.08 | P -0.312 ± 0.082 | V -0.415 ± 0.079 | Q -0.205 ± 0.11 | L -0.288 ± 0.096 | K -0.337 ± 0.12 | T -0.689 ± 0.13
K12: S -0.181 ± 0.09 | I -0.405 ± 0.27 | F -0.01 ± 0.28 | L -0.316 ± 0.079 | M -0.323 ± 0.11 | Q -0.076 ± 0.13 | E 0.031 ± 0.1 | H -0.217 ± 0.2 | G -0.079 ± 0.073 | V -0.014 ± 0.086 | R -0.359 ± 0.072 | P -0.077 ± 0.078 | W -0.643 ± 0.1 | C -0.622 ± 0.11 | A -0.05 ± 0.085 | N -0.46 ± 0.24 | T -0.201 ± 0.12 | Y -0.831 ± 0.26
G2: Q -0.17 ± 0.11 | L -0.465 ± 0.18 | W -0.674 ± 0.14 | P 0.07 ± 0.31 | T -0.439 ± 0.2 | A -0.133 ± 0.1 | V -0.209 ± 0.11 | R -0.447 ± 0.084 | M -0.189 ± 0.29 | S -0.194 ± 0.082 | K -0.565 ± 0.13 | E 0.017 ± 0.096 | C -0.448 ± 0.35
L11: R -0.344 ± 0.07 | I -0.369 ± 0.17 | S -0.134 ± 0.073 | Q 0.087 ± 0.092 | E 0.05 ± 0.094 | D -0.428 ± 0.12 | G -0.064 ± 0.067 | Y -0.656 ± 0.49 | H 0.297 ± 0.17 | T -0.079 ± 0.092 | M 0.038 ± 0.13 | N -0.243 ± 0.45 | K -0.025 ± 0.12 | A 0.075 ± 0.071 | P -0.116 ± 0.086 | C -0.567 ± 0.087 | W -0.388 ± 0.074
Q21: V -0.472 ± 0.095 | A -0.127 ± 0.092 | C -0.235 ± 0.33 | H -0.271 ± 0.48 | T -0.08 ± 0.16 | L -0.26 ± 0.085 | E 0.155 ± 0.11 | R 0.061 ± 0.073 | D -0.566 ± 0.17 | W -0.508 ± 0.11 | M -0.48 ± 0.14 | G -0.004 ± 0.078 | N -0.124 ± 0.1 | K -0.065 ± 0.13 | P -0.073 ± 0.11
N4: L -0.207 ± 0.077 | A -0.162 ± 0.078 | H -0.199 ± 0.14 | P -0.033 ± 0.083 | V -1.13 ± 0.1 | M -0.011 ± 0.083 | S -0.103 ± 0.093 | E -0.056 ± 0.082 | G -0.103 ± 0.07 | R -0.16 ± 0.08 | D 0.22 ± 0.11 | I -0.31 ± 0.2 | T -0.186 ± 0.094 | C -0.183 ± 0.1 | Y -0.226 ± 0.092 | K -0.314 ± 0.15
S8: L -0.106 ± 0.091 | N -0.384 ± 0.13 | R -0.169 ± 0.068 | M -0.343 ± 0.12 | Y -0.514 ± 0.13 | Q -0.063 ± 0.11 | H -0.461 ± 0.17 | E -0.08 ± 0.1 | V -0.187 ± 0.077 | G 0.034 ± 0.068 | C -0.581 ± 0.093 | A -0.144 ± 0.083 | K -0.107 ± 0.13 | I 0.19 ± 0.37 | F -0.399 ± 0.15 | W -0.527 ± 0.095 | D -0.066 ± 0.098
G9: A -0.339 ± 0.074 | L -0.629 ± 0.13 | P -0.213 ± 0.092 | W -1.51 ± 0.12 | N -0.248 ± 0.25 | M -0.269 ± 0.1 | V -0.334 ± 0.077 | E 0.006 ± 0.085 | S -0.795 ± 0.08 | Q -0.342 ± 0.14 | T -0.22 ± 0.092 | D 0.111 ± 0.09
C10: W -0.418 ± 0.077 | R -0.539 ± 0.071 | Y -0.439 ± 0.12 | M -0.501 ± 0.11 | V -0.322 ± 0.075 | P -0.633 ± 0.15 | I -1.37 ± 0.47 | K -0.323 ± 0.096 | S -0.213 ± 0.078 | L -0.414 ± 0.098 | T -0.245 ± 0.093 | D -0.105 ± 0.098 | Q -0.208 ± 0.086 | N -0.405 ± 0.11 | E 0.004 ± 0.076 | A -0.141 ± 0.091
N13: W -0.755 ± 0.1 | P -0.258 ± 0.095 | M -0.556 ± 0.13 | G -0.045 ± 0.071 | L -0.266 ± 0.085 | C -0.558 ± 0.17 | D -0.092 ± 0.12 | R -0.218 ± 0.068 | Q -0.061 ± 0.1 | S -0.181 ± 0.074 | Y -0.51 ± 0.26 | H -0.871 ± 0.41 | V -0.619 ± 0.08 | F -0.613 ± 0.23 | K -0.075 ± 0.085 | T -0.297 ± 0.24 | E -0.061 ± 0.084 | I -0.398 ± 0.17
A20: V -0.202 ± 0.11 | P -0.292 ± 0.2 | K -0.337 ± 0.22 | Q -0.095 ± 0.12 | E -0.082 ± 0.11 | I -0.696 ± 0.13 | W -0.295 ± 0.1 | M -0.317 ± 0.1 | L -0.199 ± 0.083 | G 0.065 ± 0.074 | S -0.049 ± 0.096 | C -0.442 ± 0.18 | R -0.038 ± 0.083 | Y -0.367 ± 0.22 | T -0.196 ± 0.14
Y18: P -0.066 ± 0.087 | I -0.318 ± 0.14 | Q 0.107 ± 0.11 | V -0.27 ± 0.096 | L -0.353 ± 0.078 | G 0.034 ± 0.071 | C -0.106 ± 0.1 | F -0.089 ± 0.46 | D -0.088 ± 0.13 | M 0.098 ± 0.14 | N 0.083 ± 0.093 | E 0.058 ± 0.095 | W -0.047 ± 0.11 | S -0.059 ± 0.076 | R -0.153 ± 0.08 | T -0.082 ± 0.13 | H -0.016 ± 0.12 | A -0.03 ± 0.075
K1: C -0.775 ± 0.34 | E -0.136 ± 0.086 | S -0.401 ± 0.22 | V -0.825 ± 0.28 | G -0.573 ± 0.2 | L -0.211 ± 0.21 | D -0.995 ± 0.17
I22: G 0.268 ± 0.073 | T 0.109 ± 0.13 | Q 0.329 ± 0.22 | E 0.004 ± 0.13 | K -0.093 ± 0.14 | P -0.043 ± 0.11 | M -0.423 ± 0.18 | W -0.365 ± 0.097 | V 0.048 ± 0.093 | L -0.073 ± 0.11 | F -0.088 ± 0.24 | C -0.55 ± 0.13 | R 0.021 ± 0.073 | S -0.066 ± 0.096 | A 0.004 ± 0.097 | N 0.551 ± 0.33
C3: F -0.567 ± 0.24 | S -0.702 ± 0.11 | Q -0.462 ± 0.085 | M -0.194 ± 0.1 | I -0.51 ± 0.23 | W -0.624 ± 0.091 | H -0.363 ± 0.21 | D -0.262 ± 0.14 | K -0.115 ± 0.11 | A -0.33 ± 0.073 | T -0.322 ± 0.082 | G -0.236 ± 0.07 | L -0.677 ± 0.081 | Y -0.056 ± 0.27 | P -0.577 ± 0.11
R6: V 0.12 ± 0.073 | L 0.204 ± 0.085 | G 0.151 ± 0.073 | S 0.303 ± 0.087 | N -0.361 ± 0.35 | C 0.036 ± 0.092 | T 0.239 ± 0.085 | W 0.012 ± 0.081 | F -0.169 ± 0.19 | Q 0.338 ± 0.1 | E 0.214 ± 0.1 | D 0.156 ± 0.14 | A 0.33 ± 0.071 | K 0.146 ± 0.1
E19: S -0.226 ± 0.093 | L -0.281 ± 0.11 | G -0.043 ± 0.075 | D -0.243 ± 0.12 | M -0.18 ± 0.15 | T -0.308 ± 0.1 | K -0.1 ± 0.11 | N -0.351 ± 0.22 | Q -0.131 ± 0.1 | A -0.107 ± 0.086 | C -0.132 ± 0.091 | P -0.284 ± 0.12 | V -0.201 ± 0.1 | R -0.188 ± 0.084 | F -0.31 ± 0.29
C15: M -0.689 ± 0.12 | S -0.596 ± 0.11 | D -0.04 ± 0.25 | P -0.259 ± 0.097 | H -0.425 ± 0.15 | E -0.076 ± 0.1 | F -0.742 ± 0.13 | Y -0.658 ± 0.22 | Q -0.282 ± 0.087 | T -0.382 ± 0.088 | L -0.713 ± 0.093 | V -0.65 ± 0.079 | G -0.305 ± 0.074 | A -0.394 ± 0.077 | K -0.295 ± 0.11 | I -0.809 ± 0.15 | R -0.378 ± 0.072 | W -0.993 ± 0.11
M23: A -0.18 ± 0.079
Y14: A -0.253 ± 0.077 | V -0.082 ± 0.072 | S 0.047 ± 0.095 | E 0.013 ± 0.1 | M 0.153 ± 0.1 | P 0.145 ± 0.09 | C 0.14 ± 0.14 | I -0.09 ± 0.1 | G 0.096 ± 0.073 | D 0.171 ± 0.11 | K -0.02 ± 0.092 | T -0.222 ± 0.1 | Q 0.007 ± 0.092 | W -0.01 ± 0.094 | R 0.01 ± 0.075 | N 0.267 ± 0.14
C5: G -0.65 ± 0.069 | M -0.286 ± 0.11 | L -0.455 ± 0.1 | N -0.478 ± 0.21 | D -0.794 ± 0.24 | A -0.414 ± 0.075 | V -1.24 ± 0.083 | H 0.066 ± 0.2 | W -0.523 ± 0.079 | I -0.936 ± 0.46 | Q -0.346 ± 0.095 | P -0.296 ± 0.1 | S -0.342 ± 0.08 | T -0.431 ± 0.094 | E -0.176 ± 0.08
